Numbering of substitutions follows the chain as printed.

The nature of this data set: Standard protocol for determination of kcat and KM (continuous spectrophotometric assay, Acetyl CoA hydrolysis at 235 nm). As to conditions: purified protein, about 23° C., 0.2 mM acetyl CoA; for Kcat: 20 mM HEPES pH 6.8, 10% ethylene glycol; for Km: pH 6.8, glyphosate 0.125 to 10 mM. In kind it is biochemical. The essentials:
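KM from initial rates over 0.125–10 mM glyphosate, fitted by Lineweaver-Burke transformation of Michaelis-Menten; kcat/KM computed as kcat divided by KM. Continuous spectrophotometric read of acetyl-CoA hydrolysis at 235 nm.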

B1: SEQ ID NO: 285: GAT polypeptide (protein)
chain: MIEVKPINAEDTYEIRHRILRPNQPLEACMYETDLLGGAFHLGGYYQGKLISIASFHKAEHSELEGQKQYQLRGMATLEGYREQKAGSTLIRHAEELLRKKGADLLWCNARTSVRGYYEKLGFSEQGGVYDIPPIGPHILMYKKLT
modifications: 11H3
notes: GAT polypeptide
As usually defined, the Km is the substrate concentration at which the rate is half of its maximum. Take B1: the Kcat was found to be 0.02 s⁻¹ and the Km was found to be 1400 µM.

B2: SEQ ID NO: 281: GAT polypeptide (protein)
chain: MIEVKPINAEDTYEIRHRILRPNQPLEACKYETDLLGGTLHLGGYYRGKLVSIASFHQAEHPELEGQKQYQLRGMATLEGYREQKAGSTLIRHAEELLRKKGADLLWCNARTSASGYYKKLGFSEQGEVYDIPPVGPHILMYKKLT
modifications: 10_6D11
notes: GAT polypeptide
For the molecule B2, the Kcat is 1.04 s⁻¹ and the Km came to 1200 µM.

B3: SEQ ID NO: 513: GAT polypeptide (protein)
chain: B2 chain with K30M, L40F, V51I, A114V, K119E, Y130C, V135I
modifications: GAT2_19H8
notes: GAT polypeptide
For B3, the Kcat came to 0.0683 s⁻¹ and the Km is 2800 µM.

B4: SEQ ID NO: 287: GAT polypeptide (protein)
chain: B2 chain with L40F, I132T
modifications: 12_2G9
notes: GAT polypeptide
Regarding B4, the Kcat stood at 2.523 s⁻¹ and the Km came to 1500 µM.

B5: SEQ ID NO: 292: GAT polypeptide (protein)
chain: B2 chain with L40F, V51I, V135T
modifications: 12_6F9
notes: GAT polypeptide
Take B5: the Kcat was 1.48 s⁻¹ and the Km was found to be 1900 µM.

B6: SEQ ID NO: 293: GAT polypeptide (protein)
chain: B2 chain with L40F, E96A, V135T
modifications: 12_6H6
notes: GAT polypeptide
For the molecule B6, the Kcat was 1.51 s⁻¹ and the Km came to 1600 µM.

B7: SEQ ID NO: 295: GAT polypeptide (protein)
chain: B2 chain with L40F, V51I, P62S, I132T
modifications: 12_7G11
notes: GAT polypeptide
Regarding B7, the Kcat turned out to be 3.908 s⁻¹ and the Km came to 2000 µM.

B8: SEQ ID NO: 298: GAT polypeptide (protein)
chain: B1 chain with Q47R, K58Q, V114A, R115S, E119K
modifications: 1_2H6
notes: GAT polypeptide
With B8, the Kcat stood at 0.155 s⁻¹ and the Km came to 900 µM.

B9: SEQ ID NO: 510: GAT polypeptide (protein)
chain: B1 chain with A39T, Q47R, K58Q, R115S, E119K, Y130C, T146A
modifications: GAT1_29G1
notes: GAT polypeptide
In the case of B9, the Kcat amounted to 0.103 s⁻¹ and the Km came out at 4000 µM.

B10: SEQ ID NO: 299: GAT polypeptide (protein)
chain: B2 chain with K30M, L40F, V51I, H57N, G80E, Y142H
modifications: 13_12G12
notes: GAT polypeptide
In the case of B10, the Kcat was determined as 0.602 s⁻¹ and the Km amounted to 690 µM.

B11: SEQ ID NO: 288: GAT polypeptide (protein)
chain: B2 chain with L40F, V51I, E128G
modifications: 12_3F1
notes: GAT polypeptide
On to B11, for which the Kcat turned out to be 0.735 s⁻¹ and the Km is 900 µM.

B12: SEQ ID NO: 284: GAT polypeptide (protein)
chain: B1 chain with A39T, K58Q, V114A, R115S, T146A
modifications: 11G3
notes: GAT polypeptide
For B12, the Kcat is 0.26 s⁻¹ and the Km came to 1700 µM.

B13: SEQ ID NO: 514: GAT polypeptide (protein)
chain: B1 chain with A39T, Q47R, K58Q, R115S, E119K
modifications: GAT2_21F1
notes: GAT polypeptide
In the case of B13, the Kcat stood at 0.07 s⁻¹ and the Km was 3000 µM.

B14: SEQ ID NO: 294: GAT polypeptide (protein)
chain: B2 chain with L40F, V51I, E128G, V135T
modifications: 12_7D6
notes: GAT polypeptide
B14: the Kcat came out at 0.898 s⁻¹ and the Km worked out at 1400 µM.

B15: SEQ ID NO: 302: GAT polypeptide (protein)
chain: B2 chain with G38S, L40F, V51I, V135T
modifications: 13_7B12
notes: GAT polypeptide
For the molecule B15, the Kcat was found to be 1.15 s⁻¹ and the Km worked out at 1700 µM.

B16: SEQ ID NO: 297: GAT polypeptide (protein)
chain: B1 chain with M30K, A39T, R115S, E119K, G128E
modifications: 12G7
notes: GAT polypeptide
In the case of B16, the Kcat is 0.0383 s⁻¹ and the Km was 3700 µM.

B17: SEQ ID NO: 290: GAT polypeptide (protein)
chain: B2 chain with L40F, E128G
modifications: 12_6A10
notes: GAT polypeptide
B17: the Kcat was found to be 0.912 s⁻¹ and the Km is 1100 µM.

B18: SEQ ID NO: 282: GAT polypeptide (protein)
chain: B2 chain with T39A, L40F, V51I, E128G
modifications: 10_8C6
notes: GAT polypeptide
Take B18: the Kcat was 0.362 s⁻¹ and the Km was 700 µM.

B19: SEQ ID NO: 301: GAT polypeptide (protein)
chain: B2 chain with K30M, G37R, G38S, T39A, L40F, V51I, G80E, I132T
modifications: 13_7A7
notes: GAT polypeptide
Regarding B19, the Kcat was 1.95 s⁻¹ and the Km is 500 µM.

B20: SEQ ID NO: 283: GAT polypeptide (protein)
chain: B1 chain with M30K, A39T, K58Q, R115S, E119K
modifications: 11C3
notes: GAT polypeptide
Take B20: the Kcat amounted to 0.0467 s⁻¹ and the Km amounted to 3100 µM.

B21: SEQ ID NO: 512: GAT polypeptide (protein)
chain: B2 chain with L40F, V51I, Q58N, P62S, A114V, V135I
modifications: GAT2_15G8
notes: GAT polypeptide
Take B21: the Kcat amounted to 0.075 s⁻¹ and the Km came to 2800 µM.

B22: SEQ ID NO: 291: GAT polypeptide (protein)
chain: B2 chain with K30M, L40F, V51I, G80E, E128G
modifications: 12_6D1
notes: GAT polypeptide
B22: the Kcat came to 0.817 s⁻¹ and the Km stood at 1200 µM.

B23: SEQ ID NO: 289: GAT polypeptide (protein)
chain: B2 chain with L40F, V51I, G80E, I132A, V135T
modifications: 12_5C10
notes: GAT polypeptide
For B23, the Kcat stood at 1.49 s⁻¹ and the Km came to 1500 µM.

B24: SEQ ID NO: 511: GAT polypeptide (protein)
chain: B2 chain with K30M, L40F, V51I, A114V, K119E, V135I
modifications: GAT1_32G1
notes: GAT polypeptide
As for B24, the Kcat was 0.075 s⁻¹ and the Km is 3300 µM.

B25: SEQ ID NO: 286: GAT polypeptide (protein)
chain: B2 chain with L40F, V51I, Y130H, V135T
modifications: 12_1F9
notes: GAT polypeptide
In the case of B25, the Kcat amounted to 1.34 s⁻¹ and the Km amounted to 3000 µM.

B26: SEQ ID NO: 296: GAT polypeptide (protein)
chain: B1 chain with A39T, R115S, E119K, V129I
modifications: 12F5
notes: GAT polypeptide
For B26, the Kcat was determined as 0.0517 s⁻¹ and the Km came to 1800 µM.

B27: SEQ ID NO: 508: GAT polypeptide (protein)
chain: B2 chain with L40F, V51I, Q58N, P62S, A114V, V135I
modifications: GAT1_21F12
notes: GAT polypeptide
Turning to B27, the Kcat came out at 0.09 s⁻¹ and the Km amounted to 4600 µM.

B28: SEQ ID NO: 509: GAT polypeptide (protein)
chain: B1 chain with A39T, Q47R, K58Q, S113F, R115S, G128E, H138Y, K143E
modifications: GAT1_24G3
notes: GAT polypeptide
Take B28: the Kcat came to 0.0817 s⁻¹ and the Km came to 3800 µM.

B29: SEQ ID NO: 502: GAT polypeptide (protein)
chain: MLEVKPINAEDTYELRHKILRPNQPLEVCMYETDLLRGAFHLGGFYGGKLISIASFHQAEHSDLQGQKQYQLRGMATLEGYRDQKAGSTLIKHAEQILRKRGADMLWCNARTSASGYYKKLGFSEQGEVFETPPVGPHILMYKRLT
modifications: 6_1H4
notes: GAT polypeptide
The molecule B29 yielded a Kcat of 1.432 s⁻¹.

B30: SEQ ID NO: 506: GAT polypeptide (protein)
chain: B29 chain with K18R, L26I, G47R, D63E, D83E, T89S, Q96E, V129I
modifications: 8_1H7
notes: GAT polypeptide
Consider B30, for which the Kcat is 1.6873 s⁻¹.

B31: SEQ ID NO: 507: GAT polypeptide (protein)
chain: B29 chain with F45Y, G47R, D83E, T89S, K92R, Q96E, M105L, E131D
modifications: 8_1H9
notes: GAT polypeptide
The molecule B31 yielded a Kcat of 1.306 s⁻¹.

B32: SEQ ID NO: 503: GAT polypeptide (protein)
chain: B29 chain with L2I, K18R, G47R, D83E, T89S, Q96E, M105L, V129I, E131D, L145I
modifications: 8_1F8
notes: GAT polypeptide
With B32, the Kcat is 1.381 s⁻¹.

B33: SEQ ID NO: 504: GAT polypeptide (protein)
chain: B29 chain with L2I, K18R, I19V, F45Y, G47R, D63E, D83E, T89S, Q96E, M105L
modifications: 8_1G2
notes: GAT polypeptide
As to B33, the Kcat was 1.124 s⁻¹.

B34: SEQ ID NO: 505: GAT polypeptide (protein)
chain: MLEVKPINAEDTYELRHKILRPNQPIEVCMYETDLLRGAFHLGGYYRGKLISIASFHQAEHSELQGQKQYQLRGMATLEGYREQKAGSSLIRHAEEILRKRGADLLWCNARTSASGYYKKLGFSEQGEIFDTPPVGPHILMYKRIT
modifications: 8_1G3
notes: GAT polypeptide
As to B34, the Kcat came to 1.815 s⁻¹.
